US7534937B2, “Genes conferring herbicide resistance” (Athenix Corporation, priority 2004, dated 2009)

System: E. coli strain DH5α
Test: Growth (OD600) in M63 broth containing glyphosate of cells carrying pAX299 (grg8)
Type: cell-based
Settings: for OD600: 37° C., about 46 hours, means ± standard deviations, triplicate cultures
Procedure: The grg8 open reading frame (ORF) was amplified by PCR, cloned into the plasmid vector pCR-Blunt-II from Invitrogen, and transformed into E. coli strain DH5α. Plasmid DNA was prepared and the presence and orientation of the inserts were determined by restriction digest. One clone contained the ORF in the forward orientation with respect to the lac promoter in the vector. This plasmid was named pAX299. The insert was sequenced and the plasmid was tested for the ability to confer resistance to glyphosate.
pAX299 was tested for the ability to grow on M63 medium in the presence of glyphosate using cells containing empty vector as a control. The plasmid pAX296 in host strain DH5α was used as a negative control. This plasmid contains a fragment of tobacco genomic DNA cloned into the vector pCR-Blunt-II. Starter cultures of the two strains were grown in M63 broth with 50 μg/ml kanamycin to maintain the plasmid. The starter cultures were diluted to approximately equal cell densities, as determined by measuring OD600, then diluted 1 to 200 into 3 ml of M63 broth containing 0 to 200 mM glyphosate. Triplicate 3 ml cultures of each strain in each concentration were grown. Cultures were grown at 37° C. with constant shaking. After about 46 hours, 0.3 ml aliquots were withdrawn and the OD600 was measured. Values represent means + standard deviations.

B1: grg8: Glyphosate resistance gene from strain ATX4145 encoding a novel non-Class II EPSP synthase (SEQ ID NO:3); ORF carried in plasmid pAX299 (protein, listed as Brevundomonas vesicularis)
chain: MMMGRAKLTIIPPGKPLTGRAMPPGSKSITNRALLLAGLAKGTSRLTGALKSDDTRYMAEALRAMGVTIDEPDDTTFIVKGSGKLQPPAAPLFLGNAGTATRFLTAAAALVDGKVIVDGDAHMRKRPIGPLVDALRSLGIDASAETGCPPVTINGTGRFEASRVQIDGGLSSQYVSALLMMAAGGDRAVDVELLGEHIGALGYIDLTVAAMRAFGAKVERVSPVAWRVEPTGYHAADFVIEPDASAATYLWAAEVLSGGKIDLGTPAEQFSQPDAKAYDLISKFPHLPAVIDGSQMQDAIPTLAVLAAFNEMPVRFVGIENLRVKECDRIRALSSGLSRIVPNLGTEEGDDLIIASDPSLAGKILTAEIDSFADHRIAMSFALAGLKIGGITILDPDCVAKTFPSYWNVLSSLGVAYED
Question: What does the source list for B1?
Answer: OD600 (0 mM glyphosate): 1.18 ± 0.029; Glyphosate resistance (conclusion from Table 1) (0 to 200 mM glyphosate): confers resistance to high levels of glyphosate; OD600 (10 mM glyphosate): 1.15 ± 0.018; OD600 (20 mM glyphosate): 1.10 ± 0.043; OD600 (50 mM glyphosate): 1.20 ± 0.037; OD600 (100 mM glyphosate): 1.31 ± 0.024; OD600 (200 mM glyphosate): 0.05 ± 0.004
